The values below come from patent US20150017095A1 (AbbVie / Abbott, published 2015).

In test [1] the target is T1, Recombinant Human β-NGF (human, UniProt P01138 122-239, limits assumed). Description: direct bind ELISA, antigen coated on plate (N-terminal VD). On the procedure: (§1) Enzyme Linked Immunosorbent Assays to screen for antibodies that bind a desired target antigen were performed as follows. High bind ELISA plates (Corning Costar #3369, Acton, Mass.) were coated with 100 μL/well of 10 μg/ml of desired target antigen (R&D Systems, Minneapolis, Minn.) or desired target antigen extra-cellular domain/FC fusion protein (R&D Systems, Minneapolis, Minn.) or monoclonal mouse anti-polyHistidine antibody (R&D Systems # MAB050, Minneapolis, Minn.) in phosphate buffered saline (10×PBS, Abbott Bioresearch Center, Media Prep# MPS-073, Worcester, Mass.) overnight at 4° C. Plates were washed four times with PBS containing 0.02% Tween 20. Plates were blocked by the addition of 300 μL/well blocking solution (non-fat dry milk powder, various retail suppliers, diluted to 2% in PBS) for ½ hour at room temperature. Plates were washed four times after blocking with PBS containing 0.02% Tween 20.
T1 sequence (P01138 122-239 limits assumed): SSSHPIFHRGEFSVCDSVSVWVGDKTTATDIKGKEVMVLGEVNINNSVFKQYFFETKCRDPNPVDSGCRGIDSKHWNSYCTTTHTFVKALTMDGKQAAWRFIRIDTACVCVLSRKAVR
(§2) Plates were washed 4 times with PBS containing 0.02% Tween 20.
(§3) One hundred microliters of enhanced TMB solution (Neogen Corp. #308177, K Blue, Lexington, Ky.) was added to each well and incubated for 10 minutes at room temperature. The reaction was stopped by the addition of 50 μL 1N sulphuric acid.

Test [2] addresses T1, Recombinant Human β-NGF. Description: BIACORE SPR, DVD-Ig captured, antigen in flow (N-terminal VD). The procedure:
(§4) The BIACORE assay (Biacore, Inc, Piscataway, N.J.) determines the affinity of antibodies or DVD-Ig with kinetic measurements of on-rate and off-rate constants. […] All chemicals are obtained from Biacore® AB (Uppsala, Sweden) or otherwise from a different source as described in the text. For example, approximately 5000 RU of goat anti-mouse IgG, (Fcγ), fragment specific polyclonal antibody (Pierce Biotechnology Inc, Rockford, Ill.) diluted in 10 mM sodium acetate (pH 4.5) is directly immobilized across a CM5 research grade biosensor chip using a standard amine coupling kit according to manufacturer's instructions and procedures at 25 μg/ml. Unreacted moieties on the biosensor surface are blocked with ethanolamine. Modified carboxymethyl dextran surface in flowcell 2 and 4 is used as a reaction surface. Unmodified carboxymethyl dextran without goat anti-mouse IgG in flow cell 1 and 3 is used as the reference surface. For kinetic analysis, rate equations derived from the 1:1 Langmuir binding model are fitted simultaneously to association and dissociation phases of all eight injections (using global fit analysis) with the use of Biaevaluation 4.0.1 software. Purified antibodies or DVD-Ig are diluted in HEPES-buffered saline for capture across goat anti-mouse IgG specific reaction surfaces. Antibodies or DVD-Ig to be captured as a ligand (25 μg/m) are injected over reaction matrices at a flow rate of 5 μl/min. The association and dissociation rate constants, kₒₙ (M⁻¹s⁻¹) and koff (s⁻¹) are determined under a continuous flow rate of 25 μl/min. Rate constants are derived by making kinetic binding measurements at different antigen concentrations ranging from 10-200 nM. The equilibrium dissociation constant (M) of the reaction between antibodies or DVD-Igs and the target antigen is then calculated from the kinetic rate constants by the following formula: KD=koff/kₒₙ. Binding is recorded as a function of time and kinetic rate constants are calculated.
(In general: Surface plasmon resonance follows binding to a sensor surface in real time, without labels.)

For test [3], the target named is T2, Recombinant Human VEGF (human, UniProt P15692-4 27-191).
T2 construct: also called VEGF165
T2 sequence (P15692 other isoform, or with tags, fused parts or gaps limits assumed): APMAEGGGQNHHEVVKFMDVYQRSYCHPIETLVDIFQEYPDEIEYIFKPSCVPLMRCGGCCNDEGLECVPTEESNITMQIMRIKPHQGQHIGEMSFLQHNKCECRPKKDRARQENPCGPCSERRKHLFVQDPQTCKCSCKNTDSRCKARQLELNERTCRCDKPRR
Description: direct bind ELISA, antigen coated on plate (N-terminal VD). The procedure:
as §1, §2, §3
A general note: ELISA stands for enzyme-linked immunosorbent assay.

Test [4] concerns the target T2, Recombinant Human VEGF. Description: BIACORE SPR, DVD-Ig captured, antigen in flow (N-terminal VD). On the procedure:
as §4

The target in test [5] is T3, Recombinant Human IL-1β (human, UniProt P01584 117-269).
T3 construct: also called IL-1b; IL-1B
Description: direct bind ELISA, antigen coated on plate. The procedure:
as §1, §2, §3

Test [6] deals with T3, Recombinant Human IL-1β. Description: BIACORE SPR, antibody captured, antigen in flow. The procedure: as §4
For test [7], the target named is T1, Recombinant Human β-NGF. Description: BIACORE SPR, antibody captured, antigen in flow; Biacore, antibody captured, 25 C, HBS-EP. On the procedure:
as §4, with “For kinetic analysis, rate equations derived from the 1:1 Langmuir binding model are fitted simultaneously to association and dissociation phases of all eight injections (using global fit analysis) with the use of Biaevaluation 4.0.1 software. Purified antibodies or DVD-Ig are diluted in HEPES-buffered saline for capture across goat anti-mouse IgG specific reaction surfaces. Antibodies or DVD-Ig to be captured as a ligand (25 μg/m) are injected over reaction matrices at a flow rate of 5 μl/min.” left out, “Rate constants are derived by making kinetic binding measurements at different antigen concentrations ranging from 10-200 nM.” left out

Test [8] deals with T1, Recombinant Human β-NGF. Description: direct bind ELISA, antigen coated on plate. The procedure: as §1, §2, §3
Test [9] addresses T1, Recombinant Human β-NGF. Description: BIACORE SPR, antibody captured, antigen in flow. On the procedure:
as §4

B1: DVD164 (NGF / PGE2 DVD-Ig) (bispecific antibody)
VH: QVQLQESGPGLVKPSETLSLTCTVSGFSLIGYDLNWIRQPPGKGLEWIGIIWGDGTTDYNSAVKSRVTISKDTSKNQFSLKLSSVTAADTAVYYCARGGYWYATSYYFDYWGQGTLVTVSSASTKGPEVQLVQSGAEVKKPGASVKVSCKASGYTFTKYWLGWVRQAPGQGLEWMGDIYPGYDYTHYNEKFKDRVTLTTDTSTSTAYMELRSLRSDDTAVYYCARSDGSSTYWGQGTLVTVSS
VL: DIQMTQSPSSLSASVGDRVTITCRASQSISNNLNWYQQKPGKAPKLLIYYTSRFHSGVPSRFSGSGSGTDFTFTISSLQPEDIATYYCQQEHTLPYTFGQGTKLEIKRTVAAPDVLMTQTPLSLPVTPGEPASISCTSSQNIVHSNGNTYLEWYLQKPGQSPQLLIYKVSNRFSGVPDRFSGSGSGTDFTLKISRVEAEDVGVYYCFQVSHVPYTFGGGTKVEIKR
notes: Outer domain is AB020 (NGF), inner domain is AB048 (PGE2); also called VD164H; VD164L
The EC50 is the concentration needed to bring the measured effect to its halfway point. The term Kd denotes the constant that tells how readily two partners part at equilibrium. A word on the koff: it is a measure of how fast the partners let go of each other. In general, kon refers to a measure of how fast the partners come together. Turning to B1, in the test with Recombinant Human β-NGF [1], the concentration giving a half-maximal response (EC50) stood at 1.21 nM. Further, in the test with Recombinant Human β-NGF [2], the Kd was 0.248 nM, the koff came out at 0.000103 s⁻¹ and the kon stood at 414000 M⁻¹ s⁻¹.

B2: DVD162 (VEGF / PGE2 DVD-Ig) (bispecific antibody)
VH: EVQLVESGGGLVQPGGSLRLSCAASGYTFTNYGMNWVRQAPGKGLEWVGWINTYTGEPTYAADFKRRFTFSLDTSKSTAYLQMNSLRAEDTAVYYCAKYPHYYGSSHWYFDVWGQGTLVTVSSASTKGPEVQLVQSGAEVKKPGASVKVSCKASGYTFTKYWLGWVRQAPGQGLEWMGDIYPGYDYTHYNEKFKDRVTLTTDTSTSTAYMELRSLRSDDTAVYYCARSDGSSTYWGQGTLVTVSS
VL: DIQMTQSPSSLSASVGDRVTITCSASQDISNYLNWYQQKPGKAPKVLIYFTSSLHSGVPSRFSGSGSGTDFTLTISSLQPEDFATYYCQQYSTVPWTFGQGTKVEIKRTVAAPDVLMTQTPLSLPVTPGEPASISCTSSQNIVHSNGNTYLEWYLQKPGQSPQLLIYKVSNRFSGVPDRFSGSGSGTDFTLKISRVEAEDVGVYYCFQVSHVPYTFGGGTKVEIKR
notes: Outer domain is AB014 (VEGF), inner domain is AB048 (PGE2); also called VD162H; VD162L
Take B2: the EC50 with Recombinant Human VEGF [3] was 1.79 nM. For the same molecule, in the test with Recombinant Human VEGF [4], the Kd was found to be 0.266 nM, the koff was determined as 0.000131 s⁻¹ and the kon came to 490000 M⁻¹ s⁻¹.

B3: AB032 anti-IL-1b parent antibody (antibody, human IgG1, V domains shown)
VH: QVQLVESGGGVVQPGRSLRLSCAASGFTFSVYGMNWVRQAPGKGLEWVAIIWYDGDNQYYADSVKGRFTISRDNSKNTLYLQMNGLRAEDTAVYYCARDLRTGPFDYWGQGTLVTVSS
VL: EIVLTQSPDFQSVTPKEKVTITCRASQSIGSSLHWYQQKPDQSPKLLIKYASQSFSGVPSRFSGSGSGTDFTLTINSLEAEDAAAYYCHQSSSLPFTFGPGTKVDIKR
Take B3: in the test with Recombinant Human IL-1β [5], the EC50 is 5.27 nM. Further, the Kd in the test with Recombinant Human IL-1β [6] is 0.0131 nM.

B4: AB020 anti-NGF parent antibody (antibody, human IgG1, V domains shown)
VH: QVQLQESGPGLVKPSETLSLTCTVSGFSLIGYDLNWIRQPPGKGLEWIGIIWGDGTTDYNSAVKSRVTISKDTSKNQFSLKLSSVTAADTAVYYCARGGYWYATSYYFDYWGQGTLVTVSS
VL: DIQMTQSPSSLSASVGDRVTITCRASQSISNNLNWYQQKPGKAPKLLIYYTSRFHSGVPSRFSGSGSGTDFTFTISSLQPEDIATYYCQQEHTLPYTFGQGTKLEIKR
Regarding B4, the dissociation constant (Kd) with Recombinant Human β-NGF [7] is 0.428 nM. Further, the EC50 with Recombinant Human β-NGF [8] stood at 2.59 nM. In the test with Recombinant Human β-NGF [9], the koff worked out at 0.000112 s⁻¹ and the kon was 261000 M⁻¹ s⁻¹.
